# Measurements published in patent publication US20080220446A1, “Method for Detecting and/or Removing Protein and/or Peptide Comprising a Cross-Beta Structure From an Aqueous Solution Comprising a Protein” (priority 2005, published 2008).
# Columns and labels:
# tPA = tPA (Homo sapiens, UniProt P00750); test: Biacore surface plasmon resonance, binding to immobilized tPA; details: Hb-AGE 32, albumin-AGE 3.9, amyloid γ-globulins 62.5 μg ml^−1
# Procedure: (§1) Binding of cross-β structure containing peptides/proteins was studied using surface plasmon resonance technology with a Biacore 2000 apparatus (Biacore AB, Uppsala, Sweden). A standardized amine coupling procedure was used to couple proteins with F domains to a CM5 chip (Biacore AB, Uppsala, Sweden). First, the dextran surface of the chips was activated by a 35 μl injection with a 1:1 mixture of 0.1 M N-hydroxysuccinimide (NHS) and 0.4 M N-ethyl-N′-(dimethylaminopropyl)carbodiimide (EDC) at a flow rate of 5 μl min.^−1. Then, the proteins were covalently coupled to the activated dextran surface. Remaining activated groups in each of the four flow channels were blocked by injection of 35 μl of 1 M ethanolamine hydrochloride pH 8.5. EDC, NHS and ethanolamine hydrochloride were obtained from Biacore. On one chip, on channels 1 to 4, buffer (reference channel), the soluble extracellular part of receptor for advanced glycation endproducts (sRAGE), tPA and K2P-tPA were immobilized. […] Binding of albumin-AGE was determined with a solution of 3.9 μg ml^−1 albumin-AGE in running buffer. albumin-AGE was filtered on a Millex-GV 0.22 μm filter unit (Millipore). […] Binding of Hb-AGE was also tested after centrifugation for 10 min. at 16,000*g alternative to filtration. tPA activation before and after filtration was assessed with a Plg-activation assay. […]
# sRAGE = target: T1, sRAGE (Homo sapiens, UniProt Q15109); test: Biacore surface plasmon resonance, binding to immobilized sRAGE; details: Hb-AGE 32, albumin-AGE 3.9, amyloid γ-globulins 62.5 μg ml^−1
# T1 construct: comprises three domains spanning amino-acid residues 23-325; His-tag (N); thrombin cleavage site (N); made in house; host or cells: 293E cells (printed as 'hamster embryonic kidney cells')
# Procedure: as §1
# BiP = target: T2, BiP (Homo sapiens, UniProt P11021); test: Affinity determination ELISA, BiP on coated (mis)folded proteins; assay type: binding; details: coated protein as labelled
# T2 construct: made in house; host or cells: HEK293E
# Source text: (§2) Synthetic genes of human BiP, human fibronectin finger 4,5 (Fn F4,5) fragment, and human tissue-type plasminogen activator finger EGF (tPA F-EGF) fragment were ordered from Geneart (Regensburg, Germany). These DNA constructs were digested using BamHI and NotI, and ligated into vector pABC674 (ABC-expression facility, Utrecht University, The Netherlands), which contains a carboxy-terminal FLAG-tag—His-tag. HEK293E cells were transiently transfected with these constructs using the polyethylene-imine method, and grown for 5-6 days.
# (§3) Denatured proteins and their native controls BSA (Sigma, A7906), glycated BSA, Hb (Sigma, H7605), glycated Hb, ovalbumin (Sigma, A6741), heat-denatured misfolded ovalbumin, human γ-globulins (Sigma, G4386), heat-denatured misfolded γ-globulins, alkyl-γ-globulins, lysozyme (ICN Biochemicals, 100831) and alkyl-lysozyme were coated on ELISA plates (Greiner Microlon high-binding, 655092) in 50 mM NaHCO3-buffer pH 9.6. The plates were blocked using Blocking reagent (Roche 1112589). […] Bound protein is detected by the FLAG-tag using 1:3000 anti-FLAG-HRP (Sigma A-8592) in PBS-T, or by 1:1000 Ni-NTA-HRP (Qiagen 34530) in PBS-T. The HRP reaction Is performed using the TMB substrate (Biosource 4501103 or Tebu Bio 101TMB100-500), stopped using 10% H2SO4 and absorbance was measured at 450 nm.
# fibronectin F4,5 = target: T3, fibronectin F4,5 (Homo sapiens, UniProt P02751); test: Affinity determination ELISA, fibronectin F4,5 on coated (mis)folded proteins; assay type: binding; details: coated protein as labelled
# T3 construct: human fibronectin finger 4,5 (Fn F4,5) fragment; made in house; host or cells: HEK293E
# Source text: as §2, §3
# tPA F-EGF = target: T4, tPA F-EGF (Homo sapiens, UniProt P00750); test: Affinity determination ELISA, tPA F-EGF on coated (mis)folded proteins; assay type: binding; details: coated protein as labelled, relative to native control
# T4 construct: made in house; host or cells: HEK293E
# T4 sequence (P00750 36-120 limits assumed): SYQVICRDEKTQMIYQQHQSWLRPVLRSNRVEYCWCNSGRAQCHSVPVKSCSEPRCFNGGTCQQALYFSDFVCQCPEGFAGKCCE
# Source text: as §2, §3
# platelets = test: Platelet aggregation assay with BSA-AGE spiked plasma before and after depletion; assay type: cell-based, human; details: 512-fold diluted plasma spiked with 250 μg/ml, tenfold diluted
# Procedure: Results are compared to platelet activating properties of the spiked plasma before depletion of BSA-AGE.
# Freshly drawn human aspirin free blood was mixed gently with citrate buffer to avoid coagulation. Blood was spinned for 15′ at 150*g at 20° C. and supernatant was collected; platelet rich plasma (PRP) with an adjusted final platelet number of 200,000 platelets/μl. Platelets were kept at 37° C. for at least 30′, before use in the assays, to ensure that they were in the resting state. For the aggregometric assays, 270 μl platelet solution was added to a glass tube and prewarmed to 37° C. A stirring magnet was added and rotation was set to 900 rpm, and the apparatus (Whole-blood aggregometer, Chrono-log, Havertown, Pa., USA) was blanked. […] Aggregation was followed in time by measuring the absorbance of the solution, that will decrease in time upon platelet aggregation. As a positive control synthetic thrombin receptor activating peptide TRAP was used. Aggregation was recorded for 15′ and expressed as the percentage of the transmitted light (0-100%).
# Sequence of tPA (P00750 36-562): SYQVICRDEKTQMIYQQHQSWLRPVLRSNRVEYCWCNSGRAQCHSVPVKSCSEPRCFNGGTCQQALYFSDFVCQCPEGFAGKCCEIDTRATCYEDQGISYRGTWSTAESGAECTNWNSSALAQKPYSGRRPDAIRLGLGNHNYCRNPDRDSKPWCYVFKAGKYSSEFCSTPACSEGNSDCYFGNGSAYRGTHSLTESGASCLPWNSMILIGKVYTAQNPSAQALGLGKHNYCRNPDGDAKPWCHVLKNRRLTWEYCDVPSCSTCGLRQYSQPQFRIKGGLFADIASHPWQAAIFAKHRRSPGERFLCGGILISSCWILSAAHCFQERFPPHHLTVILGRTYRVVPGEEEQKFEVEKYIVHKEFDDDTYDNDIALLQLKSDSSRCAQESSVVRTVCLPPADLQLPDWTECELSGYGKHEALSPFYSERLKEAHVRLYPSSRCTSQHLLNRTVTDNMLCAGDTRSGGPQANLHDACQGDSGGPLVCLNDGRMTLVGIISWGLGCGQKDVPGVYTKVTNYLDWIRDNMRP
# T2 sequence (P11021 19-654): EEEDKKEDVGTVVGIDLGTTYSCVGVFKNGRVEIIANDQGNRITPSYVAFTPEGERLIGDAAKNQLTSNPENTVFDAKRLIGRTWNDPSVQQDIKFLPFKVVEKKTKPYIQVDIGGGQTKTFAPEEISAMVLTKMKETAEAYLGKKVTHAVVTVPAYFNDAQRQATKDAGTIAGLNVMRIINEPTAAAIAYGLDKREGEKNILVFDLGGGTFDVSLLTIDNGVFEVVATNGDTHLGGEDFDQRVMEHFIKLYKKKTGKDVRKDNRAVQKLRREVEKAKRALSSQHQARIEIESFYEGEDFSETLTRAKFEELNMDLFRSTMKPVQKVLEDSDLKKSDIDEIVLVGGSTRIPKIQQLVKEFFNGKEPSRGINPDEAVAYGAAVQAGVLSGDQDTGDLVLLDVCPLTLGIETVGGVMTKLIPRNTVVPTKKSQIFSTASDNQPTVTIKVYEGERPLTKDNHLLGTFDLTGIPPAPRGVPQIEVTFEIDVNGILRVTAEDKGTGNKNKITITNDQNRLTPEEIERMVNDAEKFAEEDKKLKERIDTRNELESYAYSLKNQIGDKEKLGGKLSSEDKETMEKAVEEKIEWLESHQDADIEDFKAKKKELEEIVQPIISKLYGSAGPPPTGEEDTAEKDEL
# T1 sequence (Q15109 23-325): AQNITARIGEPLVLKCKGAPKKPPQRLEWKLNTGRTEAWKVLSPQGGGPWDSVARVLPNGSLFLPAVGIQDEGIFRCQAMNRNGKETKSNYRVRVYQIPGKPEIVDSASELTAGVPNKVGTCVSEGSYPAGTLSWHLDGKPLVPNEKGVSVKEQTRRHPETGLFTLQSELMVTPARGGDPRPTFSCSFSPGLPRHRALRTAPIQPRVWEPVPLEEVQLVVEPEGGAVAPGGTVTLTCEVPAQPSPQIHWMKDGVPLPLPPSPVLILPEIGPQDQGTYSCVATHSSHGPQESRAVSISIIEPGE
# T3 sequence (P02751 182-276 limits assumed): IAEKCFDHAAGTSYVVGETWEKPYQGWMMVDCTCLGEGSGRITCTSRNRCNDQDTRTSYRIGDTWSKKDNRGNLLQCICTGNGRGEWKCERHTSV
substance,measurement,setting,value
albumin-AGE: advanced glycation end-product modified bovine serum albumin,binding to immobilized tPA,tPA,bind
same,binding to immobilized sRAGE,sRAGE,bind
same,binding of BiP,BiP,high affinity
same,"affinity for fibronectin F4,5","fibronectin F4,5",High affinities
same,binding of tPA F-EGF,tPA F-EGF,High binding affinities
same,platelet aggregation,platelets,Platelets readily aggregate
